Read-outs that look alike come from different tables or passages of the source.
How the values were obtained:
[1] = target: IL-10R1 (Homo sapiens) (UniProt Q13651); details: cited from earlier work
[2] = target: human IL-10R1 chain coupled to agarose beads (human) (UniProt Q13651)
[3] = target: IL-10R1-FC fusion protein (human IL-10R1 extracellular region fused to mouse IgG2a FC) (human) (UniProt Q13651); assay: SPR; Biacore T200, 20 °C, HBS (10 mM Hepes pH 7.4, 0.15 M NaCl, 0.1% P20, 0.1 mg/mL BSA); IL-10R1-FC captured (~75 RU) by anti-murine FC antibody on a CM5 chip; RhCMVIL-10 (0-100 nM) or M1/M2 (100, 500, 1000 nM) injected at 75 µL/min; global fit to a bivalent analyte model (Rmax, and tc for M1, fixed for the mutants); KD2 called apparent
[4] = target: Rhesus cytomegalovirus IL-10 (RhCMVIL-10), wild type (rhesus cytomegalovirus (RhCMV) strain 68-1); assay: SEC; 24 mL Superdex 200 gel filtration column; elution position of affinity purified RhCMVIL-10 compared with cIL-10; fractions analysed by SDS-PAGE
[5] = target: IL-10R1 (Homo sapiens) (UniProt Q13651); details: cited from earlier work; remark: listed apart in the source

cIL-10, sequence (P22301 19-178): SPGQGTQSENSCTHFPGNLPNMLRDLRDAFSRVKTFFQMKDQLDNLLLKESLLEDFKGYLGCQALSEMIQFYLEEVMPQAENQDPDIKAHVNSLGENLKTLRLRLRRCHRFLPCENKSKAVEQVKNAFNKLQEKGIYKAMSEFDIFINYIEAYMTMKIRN

Substance | KD1 (bivalent analyte model, kd1/ka1) [3] [µM] | KD2 (bivalent analyte model, apparent, kd2/ka1) [3] [nM] | ka1 (bivalent analyte model, first step) [3] [M⁻¹ s⁻¹] | ka2 (bivalent analyte model, second step) [3] | kd1 (bivalent analyte model, first step) [3] [s⁻¹] | kd2 (bivalent analyte model, second step) [3] [s⁻¹] | other results
CMVIL-10 (from UniProt P17150) | – | – | – | – | – | – | Kd [1]: 1 nM
H6FXa-RhCMVIL-10 Asp-144His (ligand) | – | – | – | – | – | – | proliferation of TF-1/IL-10R1 cells, EC50 relative to RhCMVIL-10 and cIL-10; considerable activity retained at 1,000 ng/ml [2]: 300 fold
H6FXa-RhCMVIL-10 Gln-38Arg (ligand) | – | – | – | – | – | – | proliferation of TF-1/IL-10R1 cells, EC50 relative to RhCMVIL-10 and cIL-10; considerable activity retained at 1,000 ng/ml [2]: 100 fold
RhCMVIL-10 mutant 1 (M1; Gln-38Arg, Asp-144His), RhCMVIL-10-FXaH6 (ligand) | 43 | 410 | 4620 | 0.000232 1/RUs | 0.199 | 0.00187 | Rm-obs (maximum RU observed at the highest concentration, 1000 nM) [3]: 0.8 RU
RhCMVIL-10 mutant 2 (M2; Glu-142Gln, Asp-144His), RhCMVIL-10-FXaH6 (ligand) | 14.7 | 94.4 | 14500 | 0.000548 1/RUs | 0.212 | 0.00136 | Rm-obs (maximum RU observed at the highest concentration, 1000 nM) [3]: 3 RU
Rhesus cytomegalovirus IL-10 (RhCMVIL-10), wild type (ligand) | 0.0651 | 1.3 | 1.18e+06 | 0.00105 1/RUs | 0.0767 | 0.00155 | stoichiometry N [4]: 2; Rm-obs (maximum RU observed at the highest concentration, 100 nM) [3]: 20.9 RU
cIL-10 (from UniProt P22301) | – | – | – | – | – | – | Kd [5]: 1 nM

From article PMC3221699
